Publication doi:10.1101/751404, “HOPS recognizes each SNARE, assembling ternary trans-complexes for sudden fusion upon engagement with the 4th SNARE” (bioRxiv, 2019)

Molecular target: T1, Qa-SNARE Vam3, full-length, wild-type (S. cerevisiae, UniProt Q12241 1-283)
T1 construct: Vam3, vacuolar Qa-SNARE, S. cerevisiae, full-length wild type with its transmembrane domain (residues 265-283); also called GST-Qa; source: isolated as described (Mima et al., 2008; Schwartz and Merz, 2009; Zucchi and Zick, 2011), reconstituted into proteoliposomes
T1 sequence (looked up): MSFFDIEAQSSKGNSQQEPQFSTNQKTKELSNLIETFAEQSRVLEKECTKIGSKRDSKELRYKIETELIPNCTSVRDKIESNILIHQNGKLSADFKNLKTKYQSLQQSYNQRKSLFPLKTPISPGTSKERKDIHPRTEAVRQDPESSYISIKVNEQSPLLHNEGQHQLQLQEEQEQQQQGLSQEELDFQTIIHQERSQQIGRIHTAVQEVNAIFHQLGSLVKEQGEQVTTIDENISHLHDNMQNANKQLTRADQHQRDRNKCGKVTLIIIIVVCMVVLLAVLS
Experiment: co-IP; proteoliposomes with Ypt7 and R mixed with proteoliposomes with Ypt7, Qa and Qb, with or without 50 nM HOPS and 4 μM Qc, 33 min; solubilised in modified RIPA buffer with 5 μM GST-R; anti-Qa antibody and protein A magnetic beads, 4°C, 2 h; immunoblot with antibodies to R, Qa and Vps33
Conditions: both partners purified

binding result: binds
B1: R-SNARE (Nyv1), full-length, wild-type (natural protein, S. cerevisiae, UniProt Q12255 1-253, looked up)
chain: MKRFNVSYVEVIKNGETISSCFQPFQKNENYGTITSANEQITPVIFHNLIMDMVLPKVVPIKGNKVTKMSMNLIDGFDCFYSTDDHDPKTVYVCFTLVDMPKILPIRILSGLQEYESNATNELLSSHVGQILDSFHEELVEYRNQTLNSSGNGQSSNGNGQNTISDIGDATEDQIKDVIQIMNDNIDKFLERQERVSLLVDKTSQLNSSSNKFRRKAVNIKEIMWWQKVKNITLLTFTIILFVSAAFMFFYLW
notes: Nyv1, vacuolar R-SNARE, S. cerevisiae, full-length wild type with its membrane anchor; source: isolated as described (Mima et al., 2008; Schwartz and Merz, 2009; Zucchi and Zick, 2011), buffer exchanged into β-octylglucoside, reconstituted into proteoliposomes
